{"source": "patent US20240209113A1", "about": "(BEIGENE SWITZERLAND, published 2024)", "key": {"[1]": {"molecular_target": "T1, human CD137 ECD-mIgG2a (human)", "T1 construct": "Human CD137 AA 24-183 fused to mouse IgG2a Fc; also called huCD137", "assay": "competition ELISA on coated human CD137 ECD-mIgG2a: BGA-5623 (IgG4 Fc) detected with anti-human IgG-HRP in the presence of serially diluted human CD137 ligand ECD-mIgG2a"}, "[2]": {"molecular_target": "T2, human OX40 ECD-His (human, UniProt P43489 29-216)", "T2 construct": "also called human OX40-his; huOX40", "T2 sequence": "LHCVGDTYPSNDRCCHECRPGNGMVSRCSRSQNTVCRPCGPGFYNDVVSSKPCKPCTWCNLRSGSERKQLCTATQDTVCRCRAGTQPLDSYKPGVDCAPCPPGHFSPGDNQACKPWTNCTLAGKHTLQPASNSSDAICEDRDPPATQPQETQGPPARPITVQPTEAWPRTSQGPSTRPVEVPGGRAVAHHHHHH", "assay": "ELISA, antigens coated at 10 ug/ml; antibody concentration not given"}, "[3]": {"molecular_target": "T3, TNFRSF1A(CD120a) (UniProt P19438 30-211, limits assumed)", "T3 construct": "Bought protein", "T3 sequence (looked up)": "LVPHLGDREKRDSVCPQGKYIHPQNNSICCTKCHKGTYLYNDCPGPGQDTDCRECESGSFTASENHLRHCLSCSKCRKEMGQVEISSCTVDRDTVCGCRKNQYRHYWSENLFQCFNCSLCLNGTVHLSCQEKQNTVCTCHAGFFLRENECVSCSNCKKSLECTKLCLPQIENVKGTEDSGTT", "assay": "ELISA, antigens coated at 10 ug/ml; antibody concentration not given"}, "[4]": {"molecular_target": "T4, TNFRSF1B(CD120b) (UniProt P20333 23-257)", "T4 construct": "Bought protein", "T4 sequence (looked up)": "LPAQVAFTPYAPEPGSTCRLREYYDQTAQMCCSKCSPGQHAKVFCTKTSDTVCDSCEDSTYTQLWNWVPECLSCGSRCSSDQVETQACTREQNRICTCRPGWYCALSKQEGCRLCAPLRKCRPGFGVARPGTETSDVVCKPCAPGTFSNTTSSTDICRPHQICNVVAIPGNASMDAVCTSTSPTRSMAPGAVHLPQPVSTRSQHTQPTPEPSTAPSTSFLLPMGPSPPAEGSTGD", "assay": "ELISA, antigens coated at 10 ug/ml; antibody concentration not given"}, "[5]": {"molecular_target": "T5, human CD40 ECD-mIgG2a (human)", "T5 construct": "also called huCD40; TNFRSF5(CD40)", "T5 sequence (chain, as listed by the source limits assumed)": "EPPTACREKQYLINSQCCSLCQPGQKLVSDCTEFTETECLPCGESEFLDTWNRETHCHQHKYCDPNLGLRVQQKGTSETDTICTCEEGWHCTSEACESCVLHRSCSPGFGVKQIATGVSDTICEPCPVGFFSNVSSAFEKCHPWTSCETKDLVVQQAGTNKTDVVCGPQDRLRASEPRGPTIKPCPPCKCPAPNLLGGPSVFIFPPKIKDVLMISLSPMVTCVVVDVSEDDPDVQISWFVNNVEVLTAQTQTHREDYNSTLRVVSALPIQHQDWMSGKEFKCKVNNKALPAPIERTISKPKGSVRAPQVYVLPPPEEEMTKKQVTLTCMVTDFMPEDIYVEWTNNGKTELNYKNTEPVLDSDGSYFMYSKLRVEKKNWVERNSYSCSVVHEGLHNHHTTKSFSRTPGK", "assay": "ELISA, antigens coated at 10 ug/ml; antibody concentration not given"}, "[6]": {"molecular_target": "T6, Human CD137 ectodomain containing four CRDs (crystallization construct) (human, UniProt Q07011 24-162)", "T6 construct": "Expressed with a C-terminal TEV site and Fc tag; the Fc tag was cut off", "T6 chain": "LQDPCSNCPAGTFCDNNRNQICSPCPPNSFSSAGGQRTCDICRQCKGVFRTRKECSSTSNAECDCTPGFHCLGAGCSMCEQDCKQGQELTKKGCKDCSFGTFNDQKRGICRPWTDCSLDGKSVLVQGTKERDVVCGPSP", "assay": "complex purified by gel filtration and crystallized", "experimental": "The complex was then further purified by gel filtration in buffer (20 mM Tris pH 8.0, 100 mM NaCl) using a HiLoad 16/600 Superdex™ 75 pg column (GE Healthcare Life Sciences). […] Crystals cryoprotected with stepwise 5% D-(+)-Sucrose to a final 20% concentration were flash frozen in liquid nitrogen. […] Crystal was cryoprotected with 7% glycerol and flash frozen in liquid nitrogen. The X-ray diffraction data was collected at beamline BL45XU at Spring-8 synchrotron radiation facility (Hyogo, Japan)."}}}
{"binder": "human CD137 ligand-mIgG2a (Fc fusion, also called human CD137 ligand ECD-mIgG2a; huCD137 ligand) EPRGPTIKPCPPCKCPAPNLLGGPSVFIFPPKIKDVLMISLSPIVTCVVVDVSEDDPDVQISWFVNNVEVHTAQTQTHREDYNSTLRVVSALPIQHQDWMSGKEFKCKVNNKDLPAPIERTISKPKGSVRAPQVYVLPPPEEEMTKKQVTLTCMVTDFMPEDIYVEWTNNGKTELNYKNTEPVLDSDGSYFMYSKLRVEKKNWVERNSYSCSVVHEGLHNHHTTKSFSRTPGKGGGGSREGPELSPDDPAGLLDLRQGMFAQLVAQNVLLIDGPLSWYSDPGLAGVSLTGGLSYKEDTKELVVAKAGVYYVFFQLELRRVVAGEGSGSVSLALHLQPLRSAAGAAALALTVDLPPASSEARNSAFGFQGRLLHLSAGQRLGVHLHTEARARHAWQLTQGATVLGLFRVTPEIPAGLPSPRSE", "values": [{"measurement": "IC50 (read off the curve)", "setting": "[1]", "value": "~2", "unit": "µg/mL"}]}
{"binder": "Urelumab analog (antibody, human IgG4 S228P, kappa, V domains shown, also called Urelumab analog antibody) VH: QVQLQQWGAGLLKPSETLSLTCAVYGGSFSGYYWSWIRQSPEKGLEWIGEINHGGYVTYNPSLESRVTISVDTSKNQFSLKLSSVTAADTAVYYCARDYGPGNYDWYFDLWGRGTLVTVSS VL: EIVLTQSPATLSLSPGERATLSCRASQSVSSYLAWYQQKPGQAPRLLIYDASNRATGIPARFSGSGSGTDFTLTISSLEPEDFAVYYCQQRSNWPPALTFGGGTKVEIKR", "values": [{"measurement": "binding result", "setting": "[2]", "value": "no binding"}, {"measurement": "binding result", "setting": "[3]", "value": "no binding"}, {"measurement": "binding result", "setting": "[4]", "value": "no binding"}, {"measurement": "binding result", "setting": "[5]", "value": "no binding"}]}
{"binder": "VH (BGA-5623) (VHH, Human VH single domain made in E. coli with an N-terminal HIS-MBP tag removed by TEV protease) VHH: EVQLLESGGGLVQPGGSLRLSCAASGFTVSAEDVGWVRQAPGKGLEWVSAILDKGGSTYYAESVKGRFTISRDNAKNTLYLQMSSLRAEDTAVYYCARIVYHAGGGVTFDTRGQGTQVTVSS", "values": [{"measurement": "binding result", "setting": "[6]", "value": "binds"}]}
